Experiment: yeast display, Sf9 membrane polyspecificity reagent, FACS + sequencing; frameworks hold sequencing errors
How it was run: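 Nanobodies from a synthetic yeast display library (Saccharomyces cerevisiae BJ5465), induced 36–48 hours with galactose, were stained 1 hour at 4 °C with 10% biotinylated, detergent-solubilized Sf9 membrane reagent, enriched on streptavidin microbeads, then FACS-sorted. Anti-HA (expression) and streptavidin (reagent binding) fluorescence set low and high (top ~1%) gates. Polyreactivity labels come from the gate of origin. Genes were colony-PCR amplified, MiSeq 2 × 250 sequenced and filtered by CDR length.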

| Sequence | polyreactivity (PSR sort gate) |
| --- | --- |
| QVQLVESGGGLVQAGGSLRLSCAASGSTFGLNAMGWYRQAPGKERELVAAITWSGASTYYADSVKGRFTISRDNAKNTVYLQMNSLKPEDTAVYYCAKDIPTDYKDVNYWGQGTQVTVSS | low polyreactivity |
| QVQLVESGGGLVQAGGSLRLSCAASGSTFGLYAMGWYRQAPGKEREFVAAITASGGRTYYADSVKGRFTISRDHAKNTVYLQMNSLKPEDTAVYYCNSRTSHYDKYGYWGQGTQVTVSS | high polyreactivity |
| QVQLVESGGGLVQAGGSLRLSCAASGSTFGLYAMGWYRQAPRKERELVAVIRWGSGRTYYADSVKGRFTISRDNAKNTVYLQMNSLKPEDTAVYYCAKDRSYGSSSKRFGYWGQGTQVTVSS | high polyreactivity |
| QVQLVESGGGLVQAGGSLRLSCAASGSTFGLYAMGWYRQEPGKERELVAAITWRASSTYYADSVKGRFTISRDNAKNTVYLQMNSLKPEDTAVYYCAATWYSRFSRGDYDYWGQGTLVTVSS | high polyreactivity |
| QVQLVESGGGLVQAGGSLRLSCAASGSTFGLYTMGWYRQAPGKARELVAVINRSGGSTYYADSVKGRFTISRDNAKNTVYLQMNSLKPEDTAVYYCAAQRAVAGGRLDYWGQGTQVTVSS | high polyreactivity |
| QVQLVESGGGLVQAGGSLRLSCAASGSTFGNNAKGWYRQAPGKERELVAAITFRGTSTYADSVKGRFTISRDYAKNTVYLQMNSLKPEDTAVYYCAAVVYFVSYRFYYWGQGTQVTVSS | high polyreactivity |
| QVQLVESGGGLVQAGGSLRLSCAASGSTFGNNAMGWYRQAPGKERELVASINWNGGSTYYADSVKGRFTISRDNAKNTVYLQMNSLKPEDTAVYYCADDRVWAYWTYGYWGQGTQVTVSS | low polyreactivity |
| QVQLVESGGGLVQAGGSLRLSCAASGSTFGNYAMAWYRQAPGKERELVATISRSGGSTYYADSVKGRFTISRDNAKNTVYLLMNSLKPEDTAVYYCNRRYYTRKPDYNSWGQGTQVTVSS | high polyreactivity |
| QVQLVESGGGLVQAGGSLRLSCAASGSTFGNYDIGWYRQAPGKERELVAAISFSGGSTYYADSVKGRFTISRDNAKNTVYLQMNSLIPEDTAVYYCAARSNYRMDYWGQGTQVTVSS | high polyreactivity |
| QVQLVESGGGLVQAGGSLRLSCAASGSTFGPNAMGWYRQAPGKERELVAAITDSGVSTYYAVSVKGRFTISRDNAKYTVYLQMNSLKPEDTAVYYCATDWYLHRFDYWGQGTQVTVSS | low polyreactivity |
| QVQLVESGGGLVQAGGSLRLSCAASGSTFGPNAMGWYRQAPGKERELVATISSGGSTYYADSVKGRFTISRDNAKNTVYLQMNSLKPEDTAVYYCAVRTIIRPVDLYDYWGQGTQVTVSS | low polyreactivity |
| QVQLVESGGGLVQAGGSLRLSCAASGSTFGPNGMGWYRHAPGKERELVARIDRIGGGTYYADSVKGRFTISRDNANNTVYLQMNSLKPEDTAVYYCAAYGPSPFSQGYAKGDYWGQGTQVTVSS | low polyreactivity |
| QVQLVESGGGLVQAGGSLRLSCAASGSTFGPYAMGWYRQAPGKERELVAAIDKSGGSTYYADSVKGRFTISRDNAKNTVYLQMNSLKPEDTAVYYCAVEKRYPRRRYDYWGQGTQVTVSS | low polyreactivity |
| QVQLVESGGGLVQAGGSLRLSCAASGSTFGPYARGWSRQAPGKERELVSTITRNGGSTYYADSVKGRFTISRDNAKNTVYLQMNSLKPEDTAVYYCNAEGRWSSFTQRMDYWGQGTQVTVSS | low polyreactivity |
| QVQLVESGGGLVQAGGSLRLSCAASGSTFGPYTMGWYRQAPGKERELVAAISYSGASTYYADSVKGRFTISRDNAKNTVYLQMNSLKPEDTAVYYCNTVYRYTRARYPYDYWGQGTQVTVSS | high polyreactivity |
| QVQLVESGGGLVQAGGSLRLSCAASGSTFGQYAMGWYRQAPGKERELVAAISSGGRTNYADSVKGRFTISRDNAKNTVYLQMNSLKPEDTAVYYCAARYYFPFRRFRRMDYWGQGTQVTVSS | high polyreactivity |
| QVQLVESGGGLVQAGGSLRLSCAASGSTFGQYAMGWYRQAPGKERELVATISSGSTYYADSVKGRFTISRDNAKNTVYLQMNSLKPEDTAVYYCAATRRWYKSKKTFYYWGQGTQVTVSS | high polyreactivity |

— the nanobody polyreactivity screen of Harvey et al. (2022)
